Experimental data from US20200270335A1.

Molecular target: LRP6 of Super TopFlash (STF, HEK293) cells (UniProt O75581)
Assay: cell-based or functional assay

LRP6 of Super TopFlash (STF, HEK293) cells, sequence (O75581 20-1613 limits assumed): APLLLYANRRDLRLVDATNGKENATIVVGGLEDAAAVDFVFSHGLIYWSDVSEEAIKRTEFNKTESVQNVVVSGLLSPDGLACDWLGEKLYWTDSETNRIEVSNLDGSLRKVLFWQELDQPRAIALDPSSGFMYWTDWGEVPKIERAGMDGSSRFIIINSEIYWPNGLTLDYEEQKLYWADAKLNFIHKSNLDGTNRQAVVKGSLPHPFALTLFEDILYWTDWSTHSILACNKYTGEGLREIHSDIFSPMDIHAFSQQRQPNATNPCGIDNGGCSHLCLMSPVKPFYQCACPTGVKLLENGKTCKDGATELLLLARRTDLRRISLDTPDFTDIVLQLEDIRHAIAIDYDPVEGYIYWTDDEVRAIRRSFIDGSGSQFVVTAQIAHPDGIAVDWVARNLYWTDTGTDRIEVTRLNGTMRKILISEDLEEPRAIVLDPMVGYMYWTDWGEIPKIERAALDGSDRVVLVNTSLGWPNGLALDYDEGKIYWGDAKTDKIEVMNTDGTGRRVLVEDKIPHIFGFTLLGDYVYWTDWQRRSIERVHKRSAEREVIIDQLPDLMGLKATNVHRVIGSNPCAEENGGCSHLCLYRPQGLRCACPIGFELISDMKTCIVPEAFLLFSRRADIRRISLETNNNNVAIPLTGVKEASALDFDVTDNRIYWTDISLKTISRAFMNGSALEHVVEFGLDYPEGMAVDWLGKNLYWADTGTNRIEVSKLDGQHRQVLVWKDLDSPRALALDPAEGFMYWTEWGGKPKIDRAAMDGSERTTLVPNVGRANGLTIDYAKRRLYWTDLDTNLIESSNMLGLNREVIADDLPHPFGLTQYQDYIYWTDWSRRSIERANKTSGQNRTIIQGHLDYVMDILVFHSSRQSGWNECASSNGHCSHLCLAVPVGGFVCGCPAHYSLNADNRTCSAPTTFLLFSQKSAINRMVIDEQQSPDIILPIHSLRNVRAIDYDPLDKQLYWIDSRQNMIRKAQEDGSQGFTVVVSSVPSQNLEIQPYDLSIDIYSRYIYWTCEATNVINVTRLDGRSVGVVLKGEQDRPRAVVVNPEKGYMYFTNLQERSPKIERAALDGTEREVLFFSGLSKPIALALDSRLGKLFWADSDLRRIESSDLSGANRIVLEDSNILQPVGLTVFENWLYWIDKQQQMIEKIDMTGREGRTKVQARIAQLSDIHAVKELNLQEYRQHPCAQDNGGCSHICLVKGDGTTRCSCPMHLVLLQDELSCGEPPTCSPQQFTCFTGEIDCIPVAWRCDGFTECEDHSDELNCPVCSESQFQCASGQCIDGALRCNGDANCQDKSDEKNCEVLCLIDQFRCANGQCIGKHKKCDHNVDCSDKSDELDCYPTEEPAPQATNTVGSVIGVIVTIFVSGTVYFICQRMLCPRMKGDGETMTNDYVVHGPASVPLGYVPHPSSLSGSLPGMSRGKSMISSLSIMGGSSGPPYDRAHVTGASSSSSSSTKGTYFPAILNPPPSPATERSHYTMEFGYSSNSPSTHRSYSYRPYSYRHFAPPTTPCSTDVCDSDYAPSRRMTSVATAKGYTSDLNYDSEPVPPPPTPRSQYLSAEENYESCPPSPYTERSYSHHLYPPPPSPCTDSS

Substance: ACE 448 HSA-DKK2 full length (C1+C2) (from UniProt P02768 25-609; Q9UBU2 34-259) (ligand)
- activity in the Super Top Flash assay against the HSA-DKK2 C2 proteins: 10 fold
